Tests used:
cleaved-HcTyr1 = target: T1, cleaved-HcTyr1 (Hahella sp. CCB-MM4, UniProt A0A261GRE4); experiment: MBTH o-quinone trapping, absorbance at […] nm, Michaelis-Menten fit; type: biochemical; conditions: 50 mM potassium phosphate pH 7.0, 25 °C, 5 mM MBTH, 2% N,N'-dimethylformamide, Cu(II) 2:1; LID self-cleaved form; diphenolase
T1 construct: gene BTA51_09820; TYR domain after self-cleavage of the C-terminal LID domain during storage (over 2 months, 4 °C); used without further purification; expressed in E. coli BL21(DE3) with C-terminal His tag; Cu(II) added 2:1

purified protein [1] = substrate: N[C@@H](Cc1ccc(O)cc1)C(=O)O; experiment: purified protein; type: biochemical, Hahella sp. CCB-MM4; conditions: 5 mM MBTH, 2% N,N'-dimethylformamide
purified protein [2] = substrate: N[C@@H](Cc1ccc(O)c(O)c1)C(=O)O; experiment: purified protein; type: biochemical, Hahella sp. CCB-MM4; conditions: 5 mM MBTH, 2% N,N'-dimethylformamide
[3] = 50 mM potassium phosphate pH 7.0, 25 °C, Cu(II) 2:1, latent form, monophenolase
[4] = 50 mM potassium phosphate pH 7.0, 25 °C, Cu(II) 2:1, latent form, diphenolase
[5] = 50 mM sodium citrate pH 5.5, 25 °C, Cu(II) 2:1, monophenolase
[6] = 50 mM sodium citrate pH 5.5, 25 °C, Cu(II) 2:1, diphenolase

Molecule: N[C@@H](Cc1ccc(O)c(O)c1)C(=O)O [L-DOPA]
- Km (cleaved-HcTyr1): 347 ± 7 µM

B1: HcTyr1 (latent-HcTyr1) (Hahella sp. CCB-MM4) (protein)
chain: MKTRQNVYELKDDTLSWYSRAVEEMKSRDINDPTSWWYQGAIHGYATYPSALTYWHDATGYPPSQQTVNSGFWNRCQHGTWYFLPWHRMYLFYFEEIVAKAIRDMGGPADWTLPYWNYCEAYNTSASPSNQQQALQIPPEFGSSQGPNADFASLWIKNRRNYVLNKNNVNPWPAMNEAEFTNSGGDISFGGGVTGFAHSGGQTGQLESLPHNVVHTDINGAMGNPDTAALDPIFWLHHANIDRLWQVWLAQAGRSNPVVNAWKDFRFKFHDANGQPVEIAVKDVETTQLLGYVYTPAFPLSSTTPARRSVPAMDVVGATSASFSVGDHMAPLDLTMVPQPARGARLLAARGGDEKRTILRISNVKGKGATSPIDLFITNRDNEEGNEENFVGCIGLFGLENASTPSVESDGSGLNFAIDISDTINKLRQRDDWDEDNIRVQLIPQSKQDSDVEINVGRVSLHSEID
notes: full length 466 aa with LID domain (latent), C-terminal His tag (pET22b), E. coli BL21(DE3), about 52 kDa, monomer; Cu(II) added 2:1
- Km (purified protein [1]; [3]): 187 ± 35 µM
- kcat (purified protein [1]; [3]): 0.71 ± 0.03 s⁻¹
- Km (purified protein [2]; [4]): 370 ± 5 µM
- kcat (purified protein [2]; [4]): 1.00 ± 0.0 s⁻¹

B2: HcTyr2 (Hahella sp. CCB-MM4) (protein)
chain: MGDSSELNVRRSVRDLQAEYDRGNRKPLEDLIRAWKGIQELPPDDKRSFFILGGYHGEPFDYRNAVDALPPDDIYTYWGGWCNHGNVLFPTWHRIYILKLEEALQSIVPGVTLPFWDETSEETVKKGIPDVLTREYFELDGENIKNPLYSYTLPLSLSDNVPGDNKAYEKPAGYETVRYPLSGLVGTPEARAATAKHNAKYPNPIENTQLLNKNIIAWLHGSGKDEEGPTTTDPNPKGRGVKWMYEKCLSAPNYTVFSNTTSAGQWNLDHPAKSVVALEQPHNDVHLAVGGFDIPGQGESGQVADANGDMGENNTAALDPIFFFHHCNVDRMFWLWQKQNGFINKLEVITGYYGTNSSDSQGPTPGIPPGTPLDLNTPLNPFIKDEFGNPFTSMDCINIEEQLGYTYGPGSLDEVPKPEPITGGSTKKLTVRGINRGLFDGSFVIRAYASVPDAQGQLTEYYLGDHAVLSRRNVVKCANCLTHLEVIAHFPLDTLSADLVDKAEYWITIQHRGHSKRMKVDKDTGQSEKALLAQRAELPEKLKYSISVTD
notes: full length 550 aa with LID domain attached, C-terminal His tag (pET22b), E. coli BL21(DE3), about 61 kDa; Cu(II) added 2:1
- Km (purified protein [1]; [5]): 160 ± 5 µM
- kcat (purified protein [1]; [5]): 6.12 s⁻¹
- Km (purified protein [2]; [6]): 196 ± 6 µM
- kcat (purified protein [2]; [6]): 9.94 ± 0.0 s⁻¹
